For data set [1], the system named is OxyR (Streptomyces gilvosporeus F607). Put plainly: MST. The conditions noted are these: EMSA: 20 mM Tris pH 7.5, 60 mM KCl, 2 mM EDTA, 0.5 mM DTT, 4% Ficoll, 1 ug poly(dI-dC), 20 uL, 15-25 C, 30 min, MST: 50 mM HEPES pH 7.4, 0.05% Tween 20, room …. Background: In EMSA bound probe runs differently from free probe, usually more slowly.
Data set [2] deals with OxyR C212D (mimic of overoxidized OxyR) (Streptomyces gilvosporeus F607). Description: MST. Conditions: overoxidized OxyR (C212D mimic per Results); EMSA: 20 mM Tris pH 7.5, 60 mM KCl, 2 mM EDTA, 0.5 mM DTT, 4% Ficoll, 1 ug poly(dI-dC), 20 uL, 15-25 C, 30 min; MST: 50 mM HEPES pH 7.4, 0.05% Tween 20, room ….

The text below walks through data of publication PMC10580950.

In general, Kd refers to the concentration at which binding is half-saturated. In the case of psgnM (redox EMSA and MST), the Kd in data set [1] (oxidized OxyR (H2O2)) was found to be 45.9 nM; in data set [1] (reduced OxyR (DTT)) it was 135 nM; in data set [2], 324 nM.
